{"source": "paper PMC9234330", "about": "“Identification of Two Novel Fluorinases From Amycolatopsis sp. CA-128772 and Methanosaeta sp. PtaU1.Bin055 and a Mutant With Improved Catalytic Efficiency With Native Substrate” (Frontiers in Bioengineering and Biotechnology, 2022)", "proteins": {"B1": {"name": "Fam (Amycolatopsis sp. CA-128772) (protein)", "chain": "MAKPSRPIIAFMSDLGITDDSVAQCKGLMLSVCPDVTIVDVCHTMKPWDVEEGARYIVDLPRLFPEGTVFATTTYPATGTTTRSVALRIKQAAKGGARGQWAGSGAGFERAEGSYIYIAPNNGLLTSVIEEHGYVEAYEVSSTEVIPEQPEPTFYSREMVALPSAHLAAGFPLEKVGRPLADDEIVRFERAKPAQNDDGELVGVVTAIDHPFGNVWTNIHREDLEKLGAGYGTRLRITLDEVLPFDLPLSPTFADAGPIGTPVAYLSSRGYLALARNAASLAYPYNLNAGISVRVVAA"}}, "substrate": "C[S+](CC[C@H](N)C(=O)O)C[C@H]1O[C@@H](n2cnc3c(N)ncnc32)[C@H](O)[C@@H]1O", "assay": "purified protein", "type": "biochemical, Amycolatopsis sp. CA-128772", "details": "KF 100 mM (methods text says 200 mM), Tris-HCl 50 mM pH 7.8, 50 °C, 10 min"}
{"protein": "B1", "values": [{"measurement": "Km", "result": "77.17 ± 14.10", "unit": "µM"}, {"measurement": "kcat", "result": 0.00285, "unit": "s⁻¹"}, {"measurement": "kcat/Km", "result": 37, "unit": "M⁻¹ s⁻¹"}]}
